Reference: article PMC2855162 (Molecular cell, 2010)

B1: His-TRAF2 (domain or fragment, human)
chain: SELLQRCESLEKKTATFENIVCVLNREVERVAMTAEACSRQHRLDQDKIEALSSKVQQLERSIGL

Key:
His-Smt3-TRAF1 (human) = target: T1, His-Smt3-TRAF1 (human); test: SEC-MALS
T1 sequence (Q13077 whole entry, looked up): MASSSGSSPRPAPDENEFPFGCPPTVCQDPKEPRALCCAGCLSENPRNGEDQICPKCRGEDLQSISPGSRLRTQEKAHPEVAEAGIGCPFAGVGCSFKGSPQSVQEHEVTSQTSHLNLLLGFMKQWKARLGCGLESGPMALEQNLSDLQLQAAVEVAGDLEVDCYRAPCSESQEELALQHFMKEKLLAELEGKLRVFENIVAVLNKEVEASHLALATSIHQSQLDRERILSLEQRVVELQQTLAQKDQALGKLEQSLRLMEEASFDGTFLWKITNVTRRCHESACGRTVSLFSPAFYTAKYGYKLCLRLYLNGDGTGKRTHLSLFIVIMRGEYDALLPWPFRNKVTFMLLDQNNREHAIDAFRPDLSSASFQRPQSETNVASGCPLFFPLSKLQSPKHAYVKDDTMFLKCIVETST

SEC-MALS = target: the molecule itself; test: SEC-MALS
His-TRAF2 = target: B1; test: pull-down
[1] = target: T2, TRAF2 construct containing residues 266-329 (human, UniProt Q12933 266-329); test: SEC-MALS
T2 sequence (looked up): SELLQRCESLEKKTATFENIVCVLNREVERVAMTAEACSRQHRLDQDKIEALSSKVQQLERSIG

## His-Smt3-TRAF1 (domain or fragment)
His-Smt3-TRAF1 (human)
  stoichiometry N: 3

## B1
SEC-MALS
  stoichiometry N: 3
His-Smt3-TRAF1 (human)
  stoichiometry N (TRAF2 per TRAF1): 2

B2: untagged TRAF1 (co-expressed with His-tagged TRAF2 and cIAP2) (domain or fragment, human)
chain: FMKEKLLAELEGKLRVFENIVAVLNKEVEASHLALATSIHQSQLDRERILSLEQRVVELQQTLA
His-TRAF2
  stoichiometry N: ~2 TRAF2 per TRAF1

B3: cIAP2 BIR1 domain (residues 26-99), non-tagged (domain or fragment, human, UniProt Q13489 26-99, looked up)
chain: LSCELYRMSTYSTFPAGVPVSERSLARAGFYYTGVNDKVKCFCCGLMLDNWKRGDSPTEKHKKLYPSCRFVQSL
[1]
  stoichiometry N: 3 TRAF2 molecules per cIAP2 BIR1 molecule
